Assay: soluble on expression in E. coli; label from the status in PepcDB or PDB records

Sequence	soluble on expression in E. coli
MKFGGVLLIVKDINKSKKFYEDVMEQKITLDLGEHVSFENGFGLQSNYKAIIGYDLPIYQQSNNFQLYFEVNDIKQWESKINRIGNIEFLHYIKEYPWGQRTFRFYDFDKNIIEISESMESVIKRLLKQGLALEEISKRTMYPVEFITQFQQLLEHHHHHH	soluble
MGSDKIHHHHHHLRVGEVAPTAIDLHIHTIESDGSLSVAGVIQEAAERGVRVLALTDHETTNGVPEAMELGQKHNLNIIPGVELITAFKGKEVHLLGYFSYAAMMHSDLQSRLKELRQQRTYLAFEMVKRLQKDGFTLKWAEVEKIANPEGAVSKGHIMRALHEHENGTIQWPVIAKLFQPYGIAYLPFLEHPFEEAVDLIYTCGGVPVLAHPGLLRDDRMVGELLSYLPMGLEVYYGYWEQREALIQNYKTIAQDKAILTTGGSDFHGLFGPVKLGEIEVPEQCSRELQTFLKLDF	not soluble
MKTSEWIDISQPLNNNIATWPGDTPFSYEVSWSKEESGSVNVGKLTMSIHTGTHIDAPFHFDNDGKKVLDLDVQVYVGPARIIDVSNLESIGKKELESFHLEGVERLLLRTSSHGKAEEFPEVIPHLRADIASFLSEKGIRLIGVDVPSVDPLDDKELAAHHQLFKHGIHILENVVLDHVADGDYELIALPLALTDADGSPVRAVIRPILEHHHHHH	soluble
MNAKKRKGSAVERNIVSRLRDKGFAVVRAPASGSKRKDPIPDIIALKNGVIILIEMKSRKDIEGKIYVRREQAEGIIEFARKSGGSLFLGVKKPGVLKFIPFEKLRRTETGNYVADSEIEGLDLEDLVRLVEAKISRTLDNFL	soluble
MKKNMLRIMATVTIMGGLFVSTNVPNVKAEEYPEMIVFDDVPVNHWAYDDIMDVVYNKVMLGYGNGKFGVGDNVTREQVAAVLYRTLNLKKEGPLKNPYKDISERATFFLDEILVLTKHGIFEGDEKGNFRPAAPVTRAETAQILTKAFTFEVKKNHTFKDVPNNHWAKNAISALQSNHVIVGTGNGKFEPNKVVTREQYATFLNKAVFYFPVKDENYE	not soluble
MGHHHHHHSHDVPEMPSIPNPFPELCCSPFTSVLSADLFPKANSRKKQVIKVYSEDETSRALDVPSDITARDVCQLLILKNHYIDDHSWTLFEHLPHIGVERTIEDHELVIEVLSNWGIEEENKLYFRKNYAKYEFFKNP	not soluble
MSLGAGQPLGGYAEDLEGRQADLPKYSRANVRIVFAAVFPESNVYQGGEGYPTPSSSRLLLLDQVKTYYALSSIHGVEIIESWRSAQEVLEAPRWRLGLLLHLEGADALADILDLELLHRLGFRSLGLTWNHDNRWAASCKTRRDYGLTQSGEDLVKKAAELGVIIDLAHASDKTVADAASASPKPVIVSHANFRWKVDSPRNVGEEAVEAVVSKGGVIGYSLISTLITRGRHPTLHDVASQMAEFVEVYGHRHLAIGTDYHGLLDIRPPTGLESIDRLPRLLEALADAGLSDRQIEAIAYGNIARVIREVLPGSEGHHHHHH	soluble
MFSVTLLVVSCGILAAAYPYSQQYGNYDQQYSQQSQYYPSSGQQGYRGGYQSNPGMQGGYQGNGQDSYQDFQGYQGYQRGQGGQRGYQGYQSNQRSQGSYPERYDSSMYSPVMDLTNYYGSQGTPQYYGYPSSASYQMTPYYQNQNQGYMQQQQYNTPSQSSWSPMYYGNGYQSQQSQQQQSSMGIRPYQSSWGQTQGTNTWGSPYQFTKVDAQVTDDDNVDGSGMDSSEQTSSPASTDDSQMTSNDD	not soluble
GASALSLSLLSISRSGNTVTLIGDFPDEAAKAALMTALNGLLAPGVNVIDQIHVDPVVRSLDFSSAEPVFTASVPIPDFGLKVERDTVTLTGTAPSSEHKDAVKRAATSTWPDMKIVNNIEVTGQAPPGPPA	soluble
MGSDKIHHHHHHMYDATHLFEPPVMTEEEKMERFKERIENGEKIEADDWMPDFYRDTLIKLISMHGISEIMGALPEKEWVPKAPSLRRKLGIMAKVQDEMGHGQLLLRVVEDLMKPYGKTRADLMDDLFTGRLKFHNVFHMPTRSWADAGTIGWLVDGAAIITQTNMLGASYGPYARALQRICAEEVFHAQHGESIIMALAEGTPEQKAMIQESLDEWWESLLMFFGPASKETTGTSKQDVTIAYKIRTKTNEELRQNFFTKYVPRIRSLGLIIPDPTLRFDEETGQWIYAQPDWTEFKKIIQGGCPRSKERLALRQTSYQNNAWVREALAETIG	not soluble
TREFNDLCRPHMEALAILCGETVNLVIRVGTQARFLSSAESTGMLRVGDRQGQVLDAELTAGGRILLAELPRETLEQLYLRPVDLADDDREWGDRRLPADEFERFWRELSAARAVGFAVNVQQTEEGVAAFGVAIRNRARTAVGALTVAVPITRFRQHSQGPLVSQIKNAIRELEVDIADLEP	not soluble
MGSDKIHHHHHHMTSDIKRHIKELISGSENSEVEFKSAKGGLPESFWETFSAFANTNGGIIVLGIKEKNGIFMPDGLNKQQIDTYKKRFWDCAHNKEKVSATMLAERDVYETDIDGNFVLLFRIPRASYDIRPVYLTRNPFGNTFKRNHEGDYHCTDSEIRQMFADAHHATLPFDNQILPNYSMNDIDVATLKGYRQRFMLRKDNHPWNELDDFNFLCKIGAYRVDRENGQEGFTRAGILMFGKTESITDQVCCPWYFVDYQEKLSNNTNERWSDRIYADGSWNANLYQFFFKVYNKLSQTLPAPFLLNGIERTEETSAHIAIREALVNCIVHCNYAEQGNILIVREKDKITFRNPGRMLISVDDFYVGSQSVCRNPIIQKFFIQLGYGEKAGSGADYIVKGAIDNKWHIPALVEHVQPDTVSLYLYLNDANDTSYDANNTSYDANDTSYDANDTSYDANDTSSNEHGQRLTKETLINRVLEICEDWITIDEISEKTGKSRQYLRGRIIPEMLKLGLLEKQYPDASTSPNQKYRKKQ	not soluble
MGSDKIHHHHHHMTRLEIVDSKLRQAKKTEEYFNAIRTNIQFSGKENKILAITSVREGEGKSTASTSLALSLAQAGFKTLLIDADTRNSVMSGTFKATGTIKGLTNYLSGNADLGDIICETNVPRLMVVPSGKVPPNPTALLQNAYFNKMIEAIKNIFDYIIIDTPPIGLVVDAAIIANACDGFILVTQAGRIKRNYVEKAKEQMEQSGSKFLGIILNKVNESVATYGDYGNYGKRDRKRK	not soluble
MGSDKIHHHHHHMTRFRSTLPQVNGTTLLTDSGLETTLIFHDGLDLPCFAAYPLMETAEGRAVLRDYFQRHLAIASERSAGFLLESPTWRASRDWGAQLGHGPDDLARLNNDAIAMLVDLRDDATGVGPIVISGNIGPRGDGYVADAAMTADEAEDYHAEQIGWFAQSEVDLATAVTLSTVAEGVGVIRAAHRVDLPVVVSFTTETDGRLPDGTPLGRAIEQTDALTDGAAAYFMVNCAHPDHFRPVLDTGTAWLNRIGGVRANASRMSHAELDEAETLDAGDPAELGRDYRDLRQILPNLTVIGGCCGTDHRHIEAMADRCLGHNAA	not soluble
MFHVKLTLTTMLDTMNSSAHRPVVVADVDTGIDDALAITYLGYLHRRGLIELRITTSAGNCTAEQAAANSAEIMNSLTLSDVPITPGAPKPRALPLTTTPETHGPTGLGYHTTRATIPQLSNAAAAVDLWKGADYLLVAGPATNVAWAAENAPEVLNAIPHVTFMTGAFHYPGNTTPTAEWNAWVDPHALKEALAHYRGHAVRPTICPLNVTESVLLTPQRLKQWCQRSQEPVLPILSDALRFYFEFHESVGVGYMAQIHDLAAAMVLLNRVPHTTRPGFVDVEADAELTRGTTVVDWDSNYGDHPANAQILTALQSEDVFAEFERVVLEY	not soluble
MRVVALVPGGIGDQILFFPTLDDLKRYYPNAQLDVVVEPRSKAAYRVSKSVNDILTFDYKDRNSLADWGNLVGTIRDREYDVVITVGQSWLVGLFLWLTGIPTRIGYQGKGRSFLTKTVPFKPSQYAAAVYHDLLAPIGITTPTPELAVNVPKPDIDWANSEQKRLGVNETGYVLIYGGSSWVSQPQALETIYPAENWQEIIQDFRQKQPDLPVVVIQGPDDEQFVRSLRDYSLDIKVTSPDNVGKLTAMIAGANLMLTTDSAPLHLSVAVQTYTIALFGSTDPVKLLPNSDKLLGIKSSTGRVADILPKAVLEKVWGGLEHHHHHH	not soluble
MFFTDESGIHHDPSKVRRLGLYNVPVDYPSRKLNVLASIPLFDGVPCFMFTYSNVNSEIFAEFLRLFRNSGPIVLILDNAKFHKNAYVFSVASQLGITLLFLPPYSPDLNPIELVWKDLKRWVNTYYNLEYTLDSMEEEFYYLFLRECSQTVMKFKKRL	soluble
MGSDKIHHHHHHMPAMQHTQPSRPQLVYLAFGPATYHQEACFSIVSALAQLGSAAGEAMDIQVYTDNAQPYARLPVTVHLLDEATRQAWNAPHGYHFRSKHVLLRQVLQQHPLAVLIDTDTFFRTSPLHLFARVAPNRLLCNAIGTRYGADQKCLLYKNLLAILESRGLADCQMPLVNSGVIGLTAENCDTLDRSIAMMDEFYPLAREAYTLEEFCLAVAAYRNLELAECTDVIHHYWSRKAQFRAKIQAWLRKHEHDPLSPPALADVALVNDQLPRPPTLHRLGYKALSLTLPSHERQFARELLYGCYPYPNEFDRACASAWWDKALENLNDRYGHVEPERLRQCLRHPGLRLSLGERRKDIEAHLLRSTQA	not soluble
MQKPDESNEKHDIPCTSASLLDHLIQKEASAAEDTDPLDHIGNIGEAIIGQFSSGADVGTEILQNALKMFDQAMAYTNPQAPPKRKYKRKEAPIEDAQPTTTSSATLASLLTLNPVPIESSAKRFHQNDLRAGFSPRTKFDVDCSDFFLLQGSDADTQFNNLHKKLEKERTQMFDDQVSKDVERLLNTANRVHGPREWTAEEKAEFTSYCRSWRSGALGADDKLNLQKFYSKAYGKVFQGLSENKASSEESAIDFSNFMGVGSEDPANQTEDVPGGSCKASPDNFSFSTLNPRMKYEKEKEFRSAINNIFTEVFKEFHSKKQFIPKPTRLDVPPCEIEREHLSMLMSKFSIAMDDPEKEWNVDELQELRRFYTLFREKNHLPFVQTKEFGKFLRKAFGRLEHYELQRENDTSLQEKRKFWQEYRKTHVPPKRERKACAARTTPVRPYIKSNIDTKGETEEERRLRRAAYLRKWRLAQKEKHSADVMSQFKHQEDVAL	not soluble
MITVLRINHRPYRDKRITTHVALTARAFGASAILVDERDETLENTIRGVISNFGGSFSIKTGCNWIQEFKHFQGIRVHLTMYGRRINDVIDEIRNSGKDVMVLVGSEKVPIEAYEIADYNVSVTNQPISEVSALAIFLDRYFQGKEFEFEFRGRINVQPAERGKIVKIIPDEIECLDLLKKYGASEQLIEHVKAVEGLALKIAERCNADKRVIVAGSLLHDIGRTRTNGIDHAVAGAEILRSENIHDSVVSAVERHIGAGITREEAARLGLPEKDYVPETLEEMIVAQADNLFAGNKRLRLEEVLNIYRKRGLDSAAERIKELHRRISAIAGIDIDEIRLEHHHHHH	soluble
ASQFFFNQRTHLVSDVIDGAIIASPWNNLARLESDPAIRIVVRRDLNKNNVAVISGGGSGHEPAHVGFIGKGMLTAAVCGDVFASPSVDAVLTAIQAVTGEAGCLLIVKNYTGDRLNFGLAAEKARRLGYNVEMLIVGDDISLPDNKHPRGIAGTILVHKIAGYFAERGYNLATVLREAQYAASNTFSLGVALSSCHLPQETDAAPRHHPGHAELGMGIHGEPGASVIDTQNSAQVVNLMVDKLLAALPETGRLAVMINNLGGVSVAEMAIITRELASSPLHSRIDWLIGPASLVTALDMKGFSLTAIVLEESIEKALLTEVETSNWPTPVPPREITCVVSSHASARVEFQPSANALVAGIVELVTATLSDLETHLNALDAKVGDGDTGSTFAAAAREIASLLHRQQLPLNNLATLFALIGERLTVVMGGSSGVLMSIFFTAAGQKLEQGANVVEALNTGLAQMKFYGGADEGDRTMIDALQPALTSLLAQPKNLQAAFDAAQAGAERTCLSSKANAGRASYLSSESLLGNMDPGAQALAMVFKALAESELG	soluble
GSDLPIDPNEPTYCLCNQVSYGEMIGCDNDECPIEWFHFSCVGLNHKPKGKWYCPKCRGENE	soluble

Source: the DeepSol protein solubility set
